These results are taken from article PMC4838375.

Test in all cases: ITC
The target in assay [1] is PHDVC5HCH_(NSD1) tandem domain (murine NSD1, Glu2117–Asp2207), wild type (mouse).
For assay [2], the target named is PHDVC5HCH_(NSD1) E2204A (mouse) (UniProt O88491).
Assay [3] addresses PHDVC5HCH_(NSD1) H2205R (mouse) (UniProt O88491).
For assay [4], the target named is PHDVC5HCH_(NSD1) R2152Q (mouse) (UniProt O88491).

In assay [1], C2HR_(Nizp1) R415A (peptide) displayed an equilibrium dissociation constant (Kd) of 6.1 µM, a dH of 2.2 kcal/mol and a stoichiometry N of 1.1.

Regarding C2HR_(Nizp1) R417A (peptide), in assay [1], the dissociation constant (Kd) was found to be 36 µM, the dH is 1.5 kcal/mol and the stoichiometry N is 1.1.

In assay [1], C2HR_(Nizp1) R427A (peptide) came in with a dH of 1.7 kcal/mol.

For the substance “C2HR_(Nizp1) synthetic peptide (murine Nizp1, E397-K434), wild type”, the Kd in assay [2] is 45.2 µM; in assay [3], 27.2 µM; in assay [4], 4.9 µM; in assay [1], 3.8 µM. Besides, the results for the dH in assay [4] and in assay [1] were 3.5 kcal/mol and 4.1 kcal/mol, respectively. The stoichiometry N in assay [1] came out at 1.1.
